From publication PMC10447426 (2023) come the findings set out here.

For assay [1], the target named is T1, Fc fusion protein of mouse TNFR2 (mouse, UniProt P25119 23-258).
T1 chain: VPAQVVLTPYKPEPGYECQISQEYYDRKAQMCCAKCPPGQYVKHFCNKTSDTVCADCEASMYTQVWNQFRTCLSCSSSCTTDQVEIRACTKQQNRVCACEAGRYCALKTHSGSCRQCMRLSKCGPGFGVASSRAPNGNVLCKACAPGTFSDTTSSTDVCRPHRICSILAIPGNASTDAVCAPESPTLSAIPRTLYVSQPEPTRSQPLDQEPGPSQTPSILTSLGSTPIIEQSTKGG
In words: SPR.

In assay [2] the target is T1, Fc fusion protein of mouse TNFR2. In words: SPR; BIAcore X-100; Fc fusion proteins of mouse TNFR2 and mouse TNFR1 immobilised on CM5 chip by amine coupling; HBS-EP plus running buffer; single-cycle kinetics, five concentrations up to 100 nM, 2 min injection at 30 μl/min, 2 min dissociation; R2agoTNF fitted with a monovalent and scR2agoTNF-Fc with a bivalent model (avidity); n = 1.

B1: R2agoTNF (ligand)
chain: VRSSSRTPSDMPVAHVVANPQAEGQLQWTNHGGNALLANGVELRDNQLVVPSEGLYLIYSQVLFSGQGCPSTHVLLTHTISRIAVSYQTPVNLLSAIRSPCQRETPEGAEANPWYEPIYLGGVFQLEPGDRLSAEINRPDYLNFPDSGEVYFGIIAL
As for B1, the koff (as a rule, a measure of how fast the partners let go of each other) in assay [1] was found to be 0.00277 s⁻¹. Also, the Kd in assay [2] is 1.75 nM.
